# Test: soluble on expression in E. coli; label from the status in PepcDB or PDB records
row,Sequence,soluble on expression in E. coli
1,MNNSAFTFQTLHPDTIMDALFEHGIRVDSGLTPLNSYENRVYQFQDEDRRRFVVKFYRPERWTADQILEEHQFALQLVNDEVPVAAPVAFNGQTLLNHQGFYFAVFPSVGGRQFEADNIDQMEAVGRYLGRMHQTGRKQLFIHRPTIGLNEYLIEPRKLFEDATLIPSGLKAAFLKATDELIAAVTAHWREDFTVLRLHGDCHAGNILWRDGPMFVDLDDARNGPAVQDLWMLLNGDKAEQRMQLETIIEAYEEFSEFDTAEIGLIEPLRAMRLVYYLAWLMRRWADPAFPKNFPWLTGEDYWLRQTATFIEQAKVLQEPPLQLTPMY,soluble
2,GPLGSLGRRWGPNVQRLACIKKHLRSQGITMDELPLIGGCELDLACFFRLINEMGGMQQVTDLKKWNKLADMLRIPKTAQDRLAKLQEAYCQYLLSYDSLSPEEHRRLEKEVLMEKEILEK,soluble
3,MGSDKIHHHHHHMPIKVSPVAGSRFYIGSAPVDVPDTDVTEADFSAVTWIEVGQYETMGNSGDSAQGNTVNLLNRRRTYNWKGSRQAPQRSDNFALNTSDPGQLAMIAAEATDFNYPFKVELNGAPIPKSATAIITIASPGVVTWTGHNLAANTAVKFSTTGALPTGLTAGTSYYVKTVLDADTFTLSATKGGPVIATTGTQSGTHTATTIPSGPQRLFMGQVLAAEEGMGGANNAQMLNCTVLPNTNYVRVAALG,not soluble
4,MGSDKIHHHHHHMRKLKIGITCYPSVGGSGIIATELGKQLAEKGHEIHFITSSIPFRLNTYHPNIHFHEVEVNQYAVFKYPPYDLTLASKIAEVAERENLDIIHAHYALPHAVCAYLAKQMLKRNIGIVTTLHGTDITVLGYDPSLKDLIRFAIESSDRVTAVSSALAAETYDLIKPEKKIETIYNFIDERVYLKKNTAAIKEKHGILPDEKVVIHVSNFRKVKRVQDVIRVFRNIAGKTKAKLLLVGDGPEKSTACELIRKYGLEDQVLMLGNQDRVEDLYSISDLKLLLSEKESFGLVLLEAMACGVPCIGTNIGGIPEVIKNNVSGFLVDVGDVTAATARAMSILEDEQLSNRFTKAAIEMLENEFSSKKIVSQYEQIYADLAEPE,not soluble
5,MPVVYKRILLKLSGEALMGDGHYGIDRAVVEHIVVEVAGVLQLGVEVAIVVGGGNIFRGMKSAGDGMDRVTADYMGMLATTMNALALHDAMRRNGVVSRVQSALRIDQVVEPYVRGKALRYLDERKVVVFAAGTGNPFFTTDTAAALRGMEMNANIVLKATKVDGIYTSDPLKNKDAQRFQSLTFDEAISKNLQVMDATALTLCRDQKLPINVFSIFKTGALKRVIMGEDEGTSVFV,not soluble
6,MSKLMQNPVLHELKKQASFFIKEKIKTARLAVTDVTAEELLTEEVTGSDHSSIDSRSMAAITRVSFEVDQFQRIVKILRQRMVVFDRKEWRGMCNTLSMLNHLLLNGPLSVFSEFQHERAIIEDAIKMEWIDERGFDCGLKVRNIAEKVLRLLEDDMFLKDERERNRKQSIGRITGFGNSSFVIHSETNNGRDGSLMLSNHQTCENDCIADDHPFVENEHKTAQLLLSSST,soluble
7,MGSDKIHHHHHHMKLGVNLCFAVKRWLEPDRLAGLVRDDLGLEYVQYTYDLTDPWWPDIERDRRAIAYAKAFRKAGLTIESTFGGLASYTYNHFLAPTLELQSLGYQHLKRAIDMTAAMEVPATGMPFGSYSAADALNPARREEIYAIARDMWIELAAYAKRQGLSMLYVEPVPLATEFPSSAADAARLMADLDGRTEIPVRLLVDWGHALFEPLFGPEADMDHWMDLCQPWIAAYHIQQTDGQLDRHWSFTQPGVVTPQRLQDFWDKYALTDQTFFAEILYPFEARDEDVLADMIASVKALKAASPAA,not soluble
8,MSLLYTTPRLNISAFLFMKQQLSFLFLLSGLLAGCSSTPNPNLEQINQFTGGKTIGDATSFYWYTESFQKPSSASDYVTSGDYGSYQTSYRWEEGQVREIRREGEHLDGKKLVPFRVHIRFSKEGEAVYQQYRLGGKVLPMNEEQLAHYVLQAKAVAEATKEQDKQGLELIQGYWNGKTFETCQGVEYQRVEFNQSLPSFVFNRLASIESYVAFLGKIRNGKVHIDELLLLDDAGHDCVKEPELLDEGHHHHHH,soluble
9,FCKELPRPELPYSEMSAIGSLIQALPASCALHLANSSAVRYAQLYSLPDTVEVCCNRGTSGIEGSLSTAIGYAAASKKLNFVVIGDLSFFYDMNALWNNHFGSNLRILLLNNGGGEIFHTLPGLEMSGTSHRFVTAVHKTSAKGWAEERGFLYQEVQDEKQLDEAMKTFTQPELLTQPVIMEVFTNKNKDARILKDYYHQLKN,not soluble

# From the DeepSol protein solubility set
